Consider one molecule from publication PMC6220978, “Induced conformational changes activate the peptidoglycan synthase PBP1B” (Molecular Microbiology, 2018).

What all share (test): SPR; PBP1B versions immobilised to the chip surface; LpoB injected from 19.5 nM to 10 μM; apparent KD by non-linear regression, at least three independent experiments
Holding throughout (settings): both partners purified

Experiment [1] has as its target T1, PBP1B (wild type, PBP1B^46-844) (E. coli, UniProt P02919 46-844).
T1 construct: PBP1B, E. coli, residues 46-844, encoded on pDML924; Immobilised on the SPR chip as in Egan et al. 2014 / Gray et al. 2015; also called WT PBP1B; WT; source: E. coli BL21(DE3), purified (membrane extract, HisTrap, thrombin, HiTrap SP ion exchange)
T1 sequence (looked up): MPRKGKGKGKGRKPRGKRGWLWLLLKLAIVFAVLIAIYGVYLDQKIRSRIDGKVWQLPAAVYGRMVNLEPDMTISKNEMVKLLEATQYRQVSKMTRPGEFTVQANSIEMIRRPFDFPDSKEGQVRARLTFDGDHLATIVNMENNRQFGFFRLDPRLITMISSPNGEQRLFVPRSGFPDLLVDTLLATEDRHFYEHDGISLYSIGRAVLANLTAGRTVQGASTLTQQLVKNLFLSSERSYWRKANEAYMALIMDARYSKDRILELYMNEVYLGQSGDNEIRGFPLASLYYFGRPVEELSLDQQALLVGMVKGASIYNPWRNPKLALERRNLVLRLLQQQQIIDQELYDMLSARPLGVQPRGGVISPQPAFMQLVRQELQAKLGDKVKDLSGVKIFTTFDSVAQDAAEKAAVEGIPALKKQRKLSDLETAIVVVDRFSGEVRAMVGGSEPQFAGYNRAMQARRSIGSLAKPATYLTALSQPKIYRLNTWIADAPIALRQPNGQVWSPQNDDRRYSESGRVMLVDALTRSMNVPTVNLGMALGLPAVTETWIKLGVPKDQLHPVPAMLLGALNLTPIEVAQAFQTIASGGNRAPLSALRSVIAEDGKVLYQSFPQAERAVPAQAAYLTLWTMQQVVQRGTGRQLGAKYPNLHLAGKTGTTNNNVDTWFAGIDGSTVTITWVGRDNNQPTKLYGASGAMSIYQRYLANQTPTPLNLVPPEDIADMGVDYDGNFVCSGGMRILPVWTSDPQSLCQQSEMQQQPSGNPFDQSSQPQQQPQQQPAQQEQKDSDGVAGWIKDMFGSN

For another experiment, the target named is T2, PBP1B E341A (E. coli, UniProt P02919 46-844, E341A).
T2 construct: PBP1B, E. coli, residues 46-844, made by mutagenesis of pDML924; source: E. coli BL21(DE3), purified (membrane extract, HisTrap, thrombin, HiTrap SP ion exchange)
T2 sequence (looked up): T1 sequence (looked up) with E296A

The target in a further experiment is T3, PBP1B^Δ158–160 (E. coli, UniProt P02919 46-844, Δ158–160).
T3 construct: PBP1B, E. coli, residues 46-844 with residues 158-160 of Loop 1 removed, made by mutagenesis of pDML924; also called Loop 1 truncation; source: E. coli BL21(DE3), purified (membrane extract, HisTrap, thrombin, HiTrap SP ion exchange)
T3 sequence (looked up): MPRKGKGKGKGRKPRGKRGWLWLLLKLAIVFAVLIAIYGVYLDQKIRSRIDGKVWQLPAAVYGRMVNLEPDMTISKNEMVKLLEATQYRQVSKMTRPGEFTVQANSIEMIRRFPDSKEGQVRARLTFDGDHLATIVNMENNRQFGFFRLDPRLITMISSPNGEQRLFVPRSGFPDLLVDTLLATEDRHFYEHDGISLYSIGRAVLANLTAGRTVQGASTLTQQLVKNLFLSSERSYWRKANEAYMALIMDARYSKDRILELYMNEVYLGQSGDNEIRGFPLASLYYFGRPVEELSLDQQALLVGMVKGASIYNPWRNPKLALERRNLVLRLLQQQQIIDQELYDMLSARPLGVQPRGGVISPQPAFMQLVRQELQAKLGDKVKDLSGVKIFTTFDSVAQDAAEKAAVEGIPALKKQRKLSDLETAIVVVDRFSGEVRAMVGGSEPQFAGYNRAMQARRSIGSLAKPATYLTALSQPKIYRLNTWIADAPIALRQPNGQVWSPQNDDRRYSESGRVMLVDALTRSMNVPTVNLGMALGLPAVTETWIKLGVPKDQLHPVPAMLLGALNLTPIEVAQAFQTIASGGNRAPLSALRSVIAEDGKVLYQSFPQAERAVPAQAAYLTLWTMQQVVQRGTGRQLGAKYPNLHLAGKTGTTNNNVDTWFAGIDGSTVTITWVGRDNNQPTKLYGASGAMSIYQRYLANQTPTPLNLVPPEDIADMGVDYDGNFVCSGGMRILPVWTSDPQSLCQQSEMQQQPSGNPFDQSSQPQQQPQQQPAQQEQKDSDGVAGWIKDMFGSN

Numbering of substitutions follows the chain as printed.

B1: LpoB (natural protein, E. coli)
chain: VGQREPAPVEEVKPAPEQPAEPQQPVPTVPSVPTIPQQPGPIEHEDQTAPPAPHIRHYDWNGAMQPMVSKMLGADGVTAGSVLLVDSVNNRTNGSLNAAEATETLRNALANNGKFTLVSAQQLSMAKQQLGLSPQDSLGTRSKAIGIARNVGAHYVLYSSASGNVNAPTLQMQLMLVQTGEIIWSGKGAVSQQ
notes: LpoB, E. coli; also called lipoprotein LpoB; source: E. coli BL21(DE3), purified (HisTrap, Superdex 200), as in Egan et al. 2014
Consider B1, for which the figures for the Kd (in experiment [1]; with PBP1B E341A; in the experiment with PBP1B^Δ158–160) were 491 nM, 273 nM and 1900 nM, respectively.
